# Laboratory results as given in the RNAGym collection of RNA variant scans (doi:10.1073/pnas.2313332121).
# B1: TPR t1 (parent)
# chain: GACCAAUCUGCCCUCAGAGCUCGAGAACAUCUUCGGAUGCAGAGGAGGCAGGCUUCGGUGGCGCGAUAGCGCCAACGUCCUCAACCUCCAAUGCAUCCCACCACAUGAUGAUGCCUGAAGAGCCUUGGUUUUUUG
# Variants of: B1
# Assay: polymerase ribozyme fitness, log enrichment relative to wild type (log ratio); higher = more active; in vitro selection for triplet polymerase activity
# Summary of the method: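 Mutant libraries were PCR-built and transcribed for each subunit of a heterodimeric triplet polymerase ribozyme and selected for one round in triplicate at −7 °C, frozen, before gel excision of extended constructs and streptavidin-bead capture. Input and output libraries were Illumina-sequenced, keeping genotypes with ≥10 input reads and ≥1 read per output. Fitness is a logarithmic ratio of genotype to wild-type enrichment, in base 2, using inverse-variance-weighted replicate averages.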
row,Variant,polymerase ribozyme fitness (log ratio)
1,C72G C82G G93C,-1.73
2,G63U G107A,-4.13
3,C13A C53U G120U,-1.1
4,A41U C56U A75G U78C C82G A118G G120U A121U U129G,-3.43
5,A43C G48C C123A,-1.93
6,C40G G52A G117A,-2.65
7,C12A C114U,-1.85
8,G51U,-3.23
9,C40G C49G G51A C76U,-4.64
10,C28U G117U,-3.99
11,U32A,-3.82
12,U9A U106A,0.641
13,G107A U133G,-4.3
14,C31A A46U C72A,-5.82
15,C11G G36C G44C U78A U87G,-1.77
16,C73G G120U,-0.78
17,A2U C3G G58A,-2.99
18,G52A U54A G69U G77U C80G A83C A119U,-3.11
19,G71C U132A,-0.602
20,C11G U33C C73U C99U A111C,-6.85
21,C56G G120U,-0.0956

row,Variant,polymerase ribozyme fitness (log ratio)
1,C94G C115A A121C,0.289
2,A66G C124G G128A,-1.05
3,C8U U54A,0.528
4,A5U C12G C49G U81A G127A,-4.64
5,C8U A100C,-0.899
6,C13A G44A,-2.95
7,A6U C8G C13A G19U G61C G93C G120C,-5.97
8,C12U A29U C53G A74U,-2.34
9,C49A U78A U129G,-1.45
10,G52U A121C G127A,-0.484
11,G71U G77C U126C,-2.3
12,C40G C72U U78C,-1.15
13,C8G C22G C53U C70U A84C,-3.45
14,C11A U30G A37C U112C,-5.59
15,G71U C86U C102U,-2.63
16,G17C G42U C94U U106A,-5.2
17,G35A G60U A121U,-2.03
18,G61U G110A,-0.469
19,U9G G47A,-1.81
20,C56U C123U,1.04
21,C49G A68G G77U,-4.38

row,Variant,polymerase ribozyme fitness (log ratio)
1,U55G G57A,-0.536
2,C70U C99A A121G,-5.54
3,C11G U129C,-0.495
4,G10A A66G A103U U106A G110U G120A C124A G127A,-6.98
5,A83C G93A G117U,-2.52
6,G19C A29U C79G U112C A119G,-4.42
7,C20A C49A G63A U81A C104U G120C U133A G135U,-4.91
8,G10U C115G,-1.99
9,U21G C64U,-2.06
10,U55C C56U U59C,-0.103
11,C4A C8G G36U G45U U78A C114U,-5.41
12,G17U C49A U126C,-3.28
13,C8U G48A G57C G60U C82A G127A,-1.38
14,G52U C56U U116A,-4.17
15,C49A U78A U87G U130A,-1.01
16,G77U C89U,-0.519
17,G10U G44U C53U U96A U109C,-7.37
18,G39A C89G A90C,-2.4
19,C70G A108G,-3.92
20,G47A U55G C70A C82U,-1.41
21,G19U C62U,-3.18

row,Variant,polymerase ribozyme fitness (log ratio)
1,C72G U106C,-0.865
2,A50U G69A C123G U131G,-4.01
3,U21C C72U G93A U96G,-2.4
4,A24G G120A,-0.603
5,G39A G63C,-1.48
6,C28U G36C C79G A111U,-6.86
7,C73A C94U,0.44
8,C70G C80A C104G C124G,-6.03
9,C20U A26C C89U C124A,-4.83
10,C31G G71U C94G A121G U132C,-7.12
11,C76G G93A C115G,-4.44
12,U9G A118U G120U G122A,1.52
13,C73U U125C,-2.06
14,C62U G117C,-3.31
15,C73G G77U U125G U133G,-1.69
16,C64U C115A,-0.337
17,U59A C86G C98U,-3.38
18,A5G C82G,-0.685
19,A68C C115G C124U,-6.57
20,G51A C64A A84C G117C,-6.48
